# Measured values from patent publication US20210253725A1 (BIONTECH, published 2021).
# T1: CD27 expressed on the cell surface (HT1080_CD27 cells) (human, UniProt P26842 20-260)
# T1 sequence (looked up): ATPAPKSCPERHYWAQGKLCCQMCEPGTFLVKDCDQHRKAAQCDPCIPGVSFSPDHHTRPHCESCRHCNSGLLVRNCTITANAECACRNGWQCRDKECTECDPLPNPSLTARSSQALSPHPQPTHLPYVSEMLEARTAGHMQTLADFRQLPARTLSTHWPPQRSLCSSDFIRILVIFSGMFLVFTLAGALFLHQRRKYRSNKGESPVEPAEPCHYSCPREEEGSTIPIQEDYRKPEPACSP
# T2: CD27 protein (His-tagged, Sino Biological Inc. 10039-H08B1) (human, UniProt P26842 20-192)
# T2 construct: bought; coated onto ELISA plates; also called human CD27; recombinant protein; not shown: His tag
# T2 sequence (looked up): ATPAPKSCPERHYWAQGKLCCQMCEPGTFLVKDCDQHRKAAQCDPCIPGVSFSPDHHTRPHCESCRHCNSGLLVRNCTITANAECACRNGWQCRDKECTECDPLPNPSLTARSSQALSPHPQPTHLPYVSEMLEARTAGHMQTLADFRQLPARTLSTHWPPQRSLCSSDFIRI
# Assays:
# [1] = target: T1, CD27 expressed on the cell surface …; assay: cell-based or functional assay
# [2] = target: T2, CD27 protein (His-tagged, Sino …); assay: ELISA on coated His-tagged CD27
# [3] = target: T1, CD27 expressed on the cell surface …; assay: cellular binding assay, HT1080_CD27 cells
# Note: test concentration or dose not given here.
Binder,"IL-8, cross-linked by F(ab')2 fragment [abs. corr.] [1]",IL-8 [abs. corr.] [1],ELISA [abs. corr.] [2],Cellular binding assay [RFU] [3]
"P018.S.07.A.E03 (antibody, V domains shown, V regions on human Ig constant parts; also called AB27_125) VH: QSLEESGGRLVTPGTPLTLTCTVSGIDLSSYAMGWVRQAPGKGLELIGLIYASDRTHYATWAKGRFTISKSSTTVDLKATSLTTEDTATYFCGRYGRGSGGYYYGMDLWGPGTLVTVSS VL: DVVMTQTPASVEAAVGGTVTIKCQASQSGDNYLSWYQQKSGQPPKLLIYLASTLASGVPSRFRGSRSGTEYTLTISDLESADAATYYCQNYCAGSGVCVGVAFGGGTEVVVK",1.51 abs. corr.,0.123 abs. corr.,3.28 abs. corr.,227 RFU
"P018.S.01.A.E04 (antibody, V domains shown, V regions on human Ig constant parts; also called AB27_16) VH: QEQLKESGGGLVTPGGTLTLTCTASGSDISNYGVSWVRQAPGKGLEWIGFINADGGGTWYASWVKGRFTISRTSTTVELKMTSLTTEHTATYFCATYGGGGGHNLWGPGTLVTVSS VL: AQVLTQTPSSVSAAVGGTVTINCQSSQSVYDNNALAWYQQKPGQPPKLLLYSASRLASGVPSRFKGSGSGTQFTLTISDLESDDAATYYCAAYYGSGDIFAFGGGTEVVVE",1.15 abs. corr.,0.264 abs. corr.,3.28 abs. corr.,295 RFU
"P018.S.07.A.H05 (antibody, V domains shown, V regions on human Ig constant parts; also called AB27_133) VH: QSLEESGGRLVTPGTPLTLTCTASGFSLNSYYINWVRQAPGKGLEWIGFINGYDNTWYASWAKGRFTISRTSTTVDLRITSPTTEDTATYFCARDPGGASGTGRLDLWGQGTLVTVSS VL: DIVMTQTPASVSAAVGGTVTINCQASQSISTALAWYQQKPGQRPKLLIYDASKLASGVPSRFKGNGSGTEFTLTISDLESADAATYYCQCTYYDAYDVGAFGGGTEVVVN",1.19 abs. corr.,-0.16 abs. corr.,3.25 abs. corr.,256 RFU
"P018.S.04.A.B03 (antibody, V domains shown, V regions on human Ig constant parts; also called AB27_67) VH: QSLEESGGRLVTPGTPLTLTCTASGFSLSSYDMSWVRQAPGKGLEWIGYIWSDGDTDYANWAIGRFTISKTSTTVDLKMTSPTTEDTATYFCARGYTNYDLWGQGTLVTVSS VL: AAVLTQTPSSVSAAVGGTVTISCQSSQSLYSDPYLSWHQQKPGQPPKRLIYQASTLASGVSSRFKGSGSGTEYTLTISDVQSDDAATYFCQGTYYSDGWYSDFGGGTEVVVK",1.97 abs. corr.,0.394 abs. corr.,3.28 abs. corr.,338 RFU
"P018.S.02.A.B03 (antibody, V domains shown, V regions on human Ig constant parts; also called AB27_30) VH: QSLEESGGGLVKPGGTLTLTCTASGFSLSSTYMSWVRQAPGKGLEWIGDIYTDGSTYYASWVNGRFTISKTSTTVDLKMTSLTTEDTATYFCARGAAAAYDLWGQGTLVTVSS VL: AYDMTQTPASVSAAVGGTVTIKCQASQNIYTNLAWYQQKPGQPPKLLIYGVSNLESGVPSRFKGSGSGTQFTLTISGVQSDDAATYYCQQGYSSTNVENAFGGGTEVVVK",1.16 abs. corr.,0.12 abs. corr.,3.25 abs. corr.,332 RFU
"P018.S.10.A.H02 (antibody, V domains shown, V regions on human Ig constant parts; also called AB27_185) VH: QSLEESGGRLVTPGGSLTLTCTVSGIDLSSYAMGWFRQAPGKGLEYIGIIYSSGSTWFANWVKGRFTISKTSTTVDLKMTSLTTEDTATYFCARYSAADHGDKFKLWGQGTLVTVSS VL: AAVLTQTPSPVSAAVGGTVSISCQSSKNIFDNTRLSWFQQKPGQPPKQLIYGASTLASGVPSRFSGSGSGTQFTLTISGVQSDDAATYYCLGEYSSDSDTSFGGGTEVVVK",2.1 abs. corr.,1.57 abs. corr.,3.25 abs. corr.,144 RFU
"P018.S.09.A.D05 (antibody, V domains shown, V regions on human Ig constant parts; also called AB27_152) VH: QSLEESGGRLVTPGGSLTLTCTVSGIDLSSYAMDWVRQAPGKGLEWIGVIGAGGSTYYASWANGRFTISKTSTTVDLKISSPTTEDTATYFCARDIGGDYSSRYYFSLWGPGTLVTVSS VL: DIVMTQTPASVEAAVGGTVTIKCQASQSTSTALAWYQQKPGQRPKLLIYDSSKLASGVPSRFSGSGSGTEFTLTISGVQSDDAASYYCQQGYNINNVAFGGGTEVVVK",2.11 abs. corr.,0.187 abs. corr.,3.28 abs. corr.,400 RFU

# Results, then the binder that gave them:
"IL-8, cross-linked by F(ab')2 fragment [abs. corr.] [1]",IL-8 [abs. corr.] [1],ELISA [abs. corr.] [2],Cellular binding assay [RFU] [3],Binder
1.37 abs. corr.,0.569 abs. corr.,3.27 abs. corr.,390 RFU,"P018.S.02.A.D04 (antibody, V domains shown, V regions on human Ig constant parts; also called AB27_33) VH: QEQLVESGGGLVQPEGSLTLTCTASALSFYSAWICWVRQAPGKGLKWIACIYAGGSRSTYYATWATGRFTISEASSTTVTLQMTSLTAADTATYFCARSLSADTYWNLWGPGTLVTVSS VL: DVVMTQTPASVEAAVGGTVTIKCQASESISSWLAWYQQKPGQPPKLLIYRASTLESGVPSRFKGSGSGTEFTLTISDLESADAATYYCQNNGGGTSGYTFGGGTEVVVK"
1.48 abs. corr.,0.395 abs. corr.,3.25 abs. corr.,324 RFU,"P018.S.01.A.C02 (antibody, V domains shown, V regions on human Ig constant parts; also called AB27_7) VH: QSLEESGGDLVQPGASLTLTCTASGLDFISSYMCWVRQAPGKGLEWIGCIAPGGGNTYYATWAKGRFTFSETSSTTVTLQMTSLTAADTATYFCARTYPSIWYFGLWGPGTLVTVSS VL: DVVMTQTPASVSEPVGGTVTIKCQASQSIGSNLGWYQQKPGQPPKLLIYGASTLASGVSSRFKGSGSGTEFTLTMSDLESADAATYYCQSFYAASSAFGGGTEVVVK"
1.46 abs. corr.,0.455 abs. corr.,3.25 abs. corr.,308 RFU,"P018.S.10.A.B06 (antibody, V domains shown, V regions on human Ig constant parts; also called AB27_169) VH: QSVEESGGRLVTPGTPLTLTCTVSGFSLSSSHMCWVRQAPGKGLEWIGVINIGDIAYYASWAKGRFTISKTSTTVDLKMTSLTAADTATYFCARENAYGTGWDFDLWGQGTLVTVSS VL: AYDMTQTPASVEVAVGGTVTIKCQASESIRNALAWYQQKPGQPPKQLIYSASTLASGVPSRFKGSGSGTEFTLTISGVQSDDAATYYCQQGFSLRNVDNAFGGGTEVVVK"
2.06 abs. corr.,0.262 abs. corr.,3.28 abs. corr.,215 RFU,"P018.S.10.A.E06 (antibody, V domains shown, V regions on human Ig constant parts; also called AB27_178) VH: QSLEESGGRLVTPGTPLTLTCTVSGIDLSDYAMAWVRQAPGKGLEYIGFINIGGISSVANWAIGRFTISKSSTTVDLKITSPTTEDTATYFCAREGYTTGGGGPYYGMDLWGPGTLVTVSS VL: DIVMTQTPASVSEPMGGTVTIKCQASQSIHSWLSWYQQKPGQPPKRLIYTASTLASGVPSRFKGSGSGTEYTLTISDLESADAATYYCQRNSYSDFNNYVFGGGTEVVVK"
1.03 abs. corr.,0.236 abs. corr.,3.24 abs. corr.,315 RFU,"P018.S.01.A.A04 (antibody, V domains shown, V regions on human Ig constant parts; also called AB27_1) VH: QSVEESGGRLVTPGTPLTLTCTVSGFSLSRYWVSWVRQAPGKGLEAIGVIDNGDTAYYASWAKGRFTISKTSSITVDLKMTSLTTEDTATYFCTREGADHSGQDLWGQGTLVTVSS VL: AAVLTQTPSPVSAAVGGTVTINCQASQSVISNNDLSWYQQKPGQPPKLLIYRASNLASGVPSRFEGSGSGTQFTLTISDLESEDAATYYCQGGYAGIVDRRPFGGGTEVVVK"
1.54 abs. corr.,0.099 abs. corr.,3.27 abs. corr.,334 RFU,"P018.S.09.A.E03 (antibody, V domains shown, V regions on human Ig constant parts; also called AB27_154) VH: QSVEESGGRLVTPGTPLTLTCTASGFSLSSYYMGWVRQAPGKGLEWIGFITSGGSGSTYYASWAKGRFTISKTSTTVDLKMTSLTTEDTATYFCARYGDSFYWALDLWGQGTLVTVSS VL: AQVLTQTPSSVSAAVGGTVTINCQSSQSVLNNDLSWYQQKPGQPPKLLIYAASTLASGVPSRFKGSGSGTQFTLTINVGQSDDAATYYCQGYFIDVNNPFGGGTEVVVK"
1.06 abs. corr.,0.444 abs. corr.,3.28 abs. corr.,394 RFU,"P018.S.06.A.D04 (antibody, V domains shown, V regions on human Ig constant parts; also called AB27_103) VH: QSLEESGGRLVKPDETLTLTCTVSGFDLSSYAVVWVRQAPGKGLEWIGYIYGGSGSTWYASWAKGRFTISKTSSTTVDLKMTSLTTEDTATYFCARAYDSGYIGNSFYAFDPWGPGTLVTVSS VL: DIVMTQTPASVSAAVGGTVTIKCQASQTISSTLAWYQQKPGQPPKLLIYSASTLASGVSSRFKGSGSGPEFTLTISDLESADGGTYTCAGYGTVGVTAFGGGTEVVVR"
